Experimental data from patent US11090322B2, “Anthracycline disulfide intermediates, antibody-drug conjugates and methods” (priority 2014, dated 2021).

B1: ADC-110 (conjugate)
VH: QVQLVQSGAEVKKPGSSVKVSCKASGGIFSNHAISWVRQAPGQGLEWMGGIIPIFGTANYAQKFQGRVTITADESTSTAFMELSSLRSEDTAVYYCAREWADVFDIWGQGTMVTVSS
VL: EIVLTQSPLSLPVTPGEPASISCRSSQSLLHSNGYNYLDWYLQKPGQSPQLLIYLGVNSVSGVPDRFSGSGSGTDFTLKISRVEAEDVGVYYCMQALQTPWTFGQGTKVEIK

Columns and labels:
tumor models = details: cited from earlier work
[1] = cited from earlier work
SK-BR-3 cells = test: In vitro cell proliferation assay (CellTiter-Glo), SK-BR-3 cell viability at 5 days; format: cell-based; details: SK-BR-3, 5 days, concentrations in μg/ml; FIG. 1 and FIG. 2
Procedure: Generally, the cytotoxic or cytostatic activity of an antibody-drug conjugate (ADC) is measured by: exposing mammalian cells having receptor proteins, e.g. HER2, to the antibody of the ADC in a cell culture medium; culturing the cells for a period from about 6 hours to about 5 days; and measuring cell viability. Cell-based in vitro assays were used to measure viability (proliferation), cytotoxicity, and induction of apoptosis (caspase activation) of the ADC of the invention.
The CellTiter-Glo® Luminescent Cell Viability Assay is a commercially available (Promega Corp., Madison, Wis.), homogeneous assay method based on the recombinant expression of Coleoptera luciferase (U.S. Pat. Nos. 5,583,024; 5,674,713; 5,700,670). This cell proliferation assay determines the number of viable cells in culture based on quantitation of the ATP present, an indicator of metabolically active cells (Crouch et al (1993) J. Immunol. Meth. 160:81-88; U.S. Pat. No. 6,602,677). […]
The homogeneous “add-mix-measure” format results in cell lysis and generation of a luminescent signal proportional to the amount of ATP present. […] Viable cells are reflected in relative luminescence units (RLU). […]
Efficacy of ADC was measured by a cell proliferation assay employing the following protocol ([…] GLO™ Luminescent Cell Viability Assay, Promega Corp. Technical Bulletin TB288; Mendoza et al (2002) Cancer Res. 62:5485-5488): • 1. […]

[2] = tested on: MMTV-HER2 Fo5 transgenic mammary tumors; test: In vivo tumor growth inhibition, MMTV-HER2 Fo5 transgenic mammary tumor allograft; parameters: species or system CRL nu/nu mice; details: FIG. 5
Procedure: For example, the in vivo efficacy of an anti-HER2 ADC of the invention can be measured by a high expressing HER2 transgenic explant mouse model (Phillips et al (2008) Cancer Res. 68:9280-90). […] Subjects were treated once with ADC at certain dose levels (mg/kg) and placebo buffer control (Vehicle) and monitored over two weeks or more to measure the time to tumor doubling, log cell kill, and tumor shrinkage.
(§1) Tumors were established and allowed to grow to 150-200 mm^3 in volume (as measured using calipers) before a single treatment on day 0. Tumor volume was measured using calipers according to the formula: V (mm^3)=0.5A×B^2, where A and B are the long and short diameters, respectively. […] Data collected from each experimental group (10 mice per group) were expressed as mean±SE.
The Fo5 mouse mammary tumor model was employed to evaluate the in vivo efficacy of antibody-drug conjugates of the invention after single dose intravenous injections, and as described previously (Phillips G D L, Li G M, Dugger D L, et al. Targeting HER2-Positive Breast Cancer with Trastuzumab-DM1, an Antibody-Cytotoxic Drug Conjugate. (2008) Cancer Res. 68:9280-90), incorporated by reference herein. […]

KPL4 tumor model = test: In vivo tumor growth inhibition, KPL4 tumor model; parameters: species or system scid beige mice; details: single IV treatment Day 0 at 3 mg/kg; non specific anti-CD33 controls; FIG. 4
Procedure: When tumors reached a mean tumor volume of 100-250 mm3, they were grouped into 9 groups of 8-10 mice each. A single treatment was administered intravenously via the tail vein on Day 0 as follows: (01) Vehicle: Histidine Buffer #8: 20 mM Histidine Acetate, pH 5.5, 240 mM Sucrose, 0.02% PS 20, (02) Thio Hu anti-Her2 7C2 LC K149C-(ethylmaleimide) 0.3 mg/kg 138, (03) Thio Hu anti-Her2 7C2 LC K149C-(ethylmaleimide) 1 mg/kg 138, (04) Thio Hu anti-Her2 7C2 LC K149C-(ethylmaleimide) 3 mg/kg 138, (05) Thio Hu anti-Her2 7C2 LC K149C-(LD-57) 0.3 mg/kg 109, (06) Thio Hu anti-Her2 7C2 LC K149C-(LD-57) 1 mg/kg 109, (07) Thio Hu anti-Her2 7C2 LC K149C-(LD-57) 3 mg/kg 109, (08) Thio Hu Anti-CD33 15G15.3 LC K149C-(ethylmaleimide) 3 mg/kg 139, and (09) Thio Hu anti-CD33 15G15.3 LC K149C-(LD-57) 3 mg/kg 110.
as §1

| Molecule | efficacy in vivo tumor models (tumor models) | cytotoxicity in vitro relative to nemorubicin and doxorubicin [1] | cell-killing activity (in vitro cell viability versus concentration) (SK-BR-3 cells) | tumor growth inhibition ([2]; dosing once IV at 1 mg/kg) | tumor growth inhibition ([2]; dosing once IV at 3 mg/kg) | tumor growth inhibition (KPL4 tumor model) |
| --- | --- | --- | --- | --- | --- | --- |
| COc1cccc2c1C(=O)c1c(O)c3c(c(O)c1C2=O)C[C@@](O)(C(=O)CO)C[C@@H]3O[C@H]1C[C@H]2[C@H](O[C@@H]3[C@@H](OC)OCCN32)[C@H](C)O1 [PNU-159682, 3′-deamino-3″,4′-anhydro-[2″(S)-methoxy-3″(R)-oxy-4″-morpholinyl]doxorubicin] | effective | remarkably more cytotoxic than nemorubicin and doxorubicin | – | – | – | – |
| B1 | – | – | less activity | little tumor growth inhibition | modest tumor growth inhibition | little or no tumor growth inhibition |
